In the Human Domainome abundance scans (Beltran et al. 2025):

B1: LIM and senescent cell antigen-like-containing domain protein 2, residues 13 to 71; numbered along this chain, Q7Z4I7 (parent)
chain: AVCQRCQARFSPAERIVNSNGELYHEHCFVCAQCFRPFPEGLFYEFEGRKYCEHDFQML

Variants of: B1
Assay: abundance fitness (aPCA) (normalised: wild type 0, dead -1); higher = more abundant; growth selection in yeast, the domain comes from the species named
Conditions: Homo sapiens

Abundance fitness, by site and new letter:
H25: S -0.894; T -0.808; V -0.838; W -0.568; Y -0.786
E26: C -0.51; D -0.114; F -0.293; G -0.353; H -0.082; I -0.084; K -0.125; L -0.401; M -0.253; N -0.395; P -0.294; R -0.237; S -0.051; T -0.164; V 0.022; W -0.547; Y -0.115
H27: A -0.175; F -0.209; G -0.294; P -0.228; Q 0.148; R -0.016; S -0.227; T -0.227; V -0.001
C28: A -0.292; D -0.322; E -0.62; F -0.994; G -0.987; H -0.089; I -0.728; K -0.538; L -1.08; M -0.418; P -1.13; Q -0.872; R -0.718; S -0.832; V -0.77; W -0.996
F29: A 0.207; C -0.012; E -0.326; G -0.019; H 0.042; I 0.015; K -0.407; L -0.011; M 0.1; N -0.175; P 0.029; Q -0.184; R -0.141; S -0.155; T -0.011; V -0.083; W 0.008; Y -0.2
V30: C -0.11; D -0.798; E -0.294; F -0.097; G -0.233; H -0.143; I -0.252; K -0.224; L -0.021; M -0.311; N -0.257; Q -0.265; R -0.093; S -0.114; T -0.065; W -0.411; Y -0.343
C31: D -0.574; E -0.612; F -0.954; G -0.774; H -0.481; I -0.76; K -1.1; L -0.709; M -0.785; P -0.888; Q -1.06; R -0.767; S -0.896; T -0.975; V -1.04; W -0.893
A32: C -0.354; D -0.026; E 0.014; F -0.258; G -0.073; H 0.118; I -0.117; K -0.274; L -0.322; M -0.099; Q 0.083; R -0.26; S -0.172; V -0.001; W -0.149; Y 0.147
Q33: A 0.024; C -0.145; E 0.044; F 0.285; K -0.092; L -0.195; M -0.068; N 0.053; P -0.58; R -0.077; S -0.135; T 0.012; V 0.071; W -0.206; Y -0.107
C34: A -0.871; D -0.757; E -0.788; F -1.19; G -0.544; K -0.901; L -0.52; M -0.474; N -0.865; P -0.508; Q -0.622; R -0.668; S -1; T -1.13; V -1.04; W -1.1; Y -0.933
F35: A 0.077; C 0.096; D 0.153; E 0.144; G 0.195; H 0.224; I 0.01; K 0.204; L 0.031; M -0.027; N 0.147; P -0.739; Q -0.014; S 0.219; T 0.072; V 0.112; W -0.076; Y 0.008
R36: A -0.196; C -0.026; D -0.095; E 0.01; F -0.298; G -0.064; H -0.024; I -0.232; K 0.094; L -0.176; M -0.042; N -0.156; P -0.625; Q 0.063; S -0.008; T -0.268; V -0.399; W -0.423; Y -0.515
P37: A -0.187; C -0.171; D -0.217; E 0.042; F -0.192; G -0.328; H -0.445; I -0.23; K -0.214; L -0.349; M -0.198; Q -0.343; S -0.016; T -0.148; V -0.193; W -0.371; Y -0.14
F38: A -0.318; C -0.18; D -0.522; E -0.512; G -0.58; H -0.784; I -0.55; K -0.238; L 0.045; M -0.225; N -0.113; P -0.101; Q -0.606; R -0.571; T -0.123; W -0.273; Y -0.638
P39: A -0.056; C 0.01; D 0.05; E -0.024; F -0.565; G -0.159; H -0.383; I -0.396; K -0.064; L -0.211; M -0.143; Q -0.058; R -0.107; S -0.124; T -0.091; V -0.017; W -0.206; Y -0.396
E40: A -0.098; D -0.018; G -0.158; H 0.023; I -0.752; K -0.039; L -0.068; N -0.236; Q -0.105; T -0.15; V -0.266; W -0.31; Y -0.212
G41: A -0.238; C -0.205; E -0.612; F -0.481; H -0.338; I -0.733; K -0.305; L -0.394; M -0.271; N 0.021; P -0.518; Q 0.096; R -0.084; S -0.228; T -0.268; V -0.613; W -0.253; Y -0.532
L42: A 0.02; C -0.062; D -0.023; E 0.083; F -0.301; G -0.108; H -0.198; I 0.112; K 0.047; M 0.045; N -0.012; P -0.357; Q -0.092; R 0.006; S -0.064; T 0.07; V -0.026; W -0.302
F43: A -0.143; C -0.223; D -0.69; E -0.522; H -0.204; I -0.263; K -0.365; L -0.161; M -0.206; N -0.387; P -0.042; Q 0.103; R -0.37; S -0.103; T -0.014; V -0.132; Y 0.059
Y44: A -0.404; C -0.009; D -0.259; E -0.086; F 0.002; G -0.324; H 0.024; I -0.046; K -0.03; L -0.247; M -0.114; N 0.088; P -0.941; Q -0.019; R -0.033; S -0.342; T -0.253; W -0.145
E45: L -0.039; V -0.061
F46: A -0.039; C -0.127; D -0.217; E -0.286; G -0.465; H 0.114; I -0.446; K -0.173; L 0.029; M -0.241; N -0.202; P -0.902; Q -0.272
